Laboratory results as given in publication PMC12420816 (Nature Communications, 2025).

Target: SARS-CoV-2 nsp16 with uncleaved His6-tag (SARS-CoV-2) (UniProt P0DTD1)
Assay: native MS

Q: With “MERS-CoV nsp7-11 polyprotein, tag-free with authentic termini (domain or fragment)” as the substance, how does the percent of signal as complex read?
A: Its percent of signal as complex is less than 5%.
